Biological target: hRpn10^322–366 peptide with Y326 phosphorylated (human) (UniProt P55036)
Test: ITC

E6AP AZUL domain, E6AP[24–87], sequence (Q05086 24-87): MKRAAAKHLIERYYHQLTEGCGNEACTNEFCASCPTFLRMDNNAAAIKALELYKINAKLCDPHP

fold reduction of affinity against unphosphorylated hRpn10^322–366: 10 fold
Substance: E6AP AZUL domain, E6AP[24–87] (from UniProt Q05086 24-87) (domain or fragment)
